From the Human Domainome abundance scans (Beltran et al. 2025)
± gives the uncertainty stated by the source.

Experiment: abundance fitness (aPCA) (normalised: wild type 0, dead -1); higher = more abundant; growth selection in yeast, the domain comes from the species named
Details: Homo sapiens

In order of rising abundance fitness:
1. BAG family molecular chaperone regulator 3 P52T, O95817  -1.12 ± 0.39
2. BAG family molecular chaperone regulator 3 P52M, O95817  -1.07 ± 0.46
3. BAG family molecular chaperone regulator 3 P52E, O95817  -0.948 ± 0.38
4. BAG family molecular chaperone regulator 3 P52W, O95817  -0.837 ± 0.22
5. BAG family molecular chaperone regulator 3 P55E, O95817  -0.8 ± 0.36
6. BAG family molecular chaperone regulator 3 R19F, O95817  -0.743 ± 0.32
7. BAG family molecular chaperone regulator 3 P52L, O95817  -0.741 ± 0.12
8. BAG family molecular chaperone regulator 3 P52A, O95817  -0.727 ± 0.16
9. BAG family molecular chaperone regulator 3 Q33H, O95817  -0.708 ± 0.49
10. BAG family molecular chaperone regulator 3 P55H, O95817  -0.636 ± 0.46
11. BAG family molecular chaperone regulator 3 P52R, O95817  -0.633 ± 0.12
12. BAG family molecular chaperone regulator 3 Q33P, O95817  -0.591 ± 0.3
13. BAG family molecular chaperone regulator 3 Q33T, O95817  -0.583 ± 0.3
14. BAG family molecular chaperone regulator 3 Q33Y, O95817  -0.545 ± 0.46
15. BAG family molecular chaperone regulator 3 P52D, O95817  -0.542 ± 0.42
16. BAG family molecular chaperone regulator 3 P52H, O95817  -0.542 ± 0.48
17. BAG family molecular chaperone regulator 3 P55W, O95817  -0.508 ± 0.28
18. BAG family molecular chaperone regulator 3 Q33I, O95817  -0.499 ± 0.35
19. BAG family molecular chaperone regulator 3 R19D, O95817  -0.499 ± 0.31
20. BAG family molecular chaperone regulator 3 R19L, O95817  -0.455 ± 0.17
21. BAG family molecular chaperone regulator 3 Q33V, O95817  -0.428 ± 0.068
22. BAG family molecular chaperone regulator 3 P55T, O95817  -0.427 ± 0.23
23. BAG family molecular chaperone regulator 3 R19H, O95817  -0.399 ± 0.18
24. BAG family molecular chaperone regulator 3 P52G, O95817  -0.389 ± 0.1
25. BAG family molecular chaperone regulator 3 Q33W, O95817  -0.384 ± 0.081
26. BAG family molecular chaperone regulator 3 R19M, O95817  -0.37 ± 0.28
27. BAG family molecular chaperone regulator 3 Q33N, O95817  -0.357 ± 0.29
28. BAG family molecular chaperone regulator 3 P55M, O95817  -0.356 ± 0.2
29. BAG family molecular chaperone regulator 3 Q33C, O95817  -0.352 ± 0.2
30. BAG family molecular chaperone regulator 3 R19G, O95817  -0.35 ± 0.12
31. BAG family molecular chaperone regulator 3 R19C, O95817  -0.341 ± 0.19
32. BAG family molecular chaperone regulator 3 R19Q, O95817  -0.333 ± 0.084
33. BAG family molecular chaperone regulator 3 P55R, O95817  -0.306 ± 0.11
34. BAG family molecular chaperone regulator 3 P52S, O95817  -0.303 ± 0.11
35. BAG family molecular chaperone regulator 3 Q33M, O95817  -0.29 ± 0.3
36. BAG family molecular chaperone regulator 3 P55D, O95817  -0.281 ± 0.39
37. BAG family molecular chaperone regulator 3 Q33S, O95817  -0.265 ± 0.14
38. BAG family molecular chaperone regulator 3 R19P, O95817  -0.253 ± 0.23
39. BAG family molecular chaperone regulator 3 Q11H, O95817  -0.246 ± 0.26
40. BAG family molecular chaperone regulator 3 Q11L, O95817  -0.227 ± 0.32
41. BAG family molecular chaperone regulator 3 Q33F, O95817  -0.183 ± 0.27
42. BAG family molecular chaperone regulator 3 P55L, O95817  -0.133 ± 0.095
43. BAG family molecular chaperone regulator 3 Q11P, O95817  -0.132 ± 0.41
44. BAG family molecular chaperone regulator 3 R19N, O95817  -0.125 ± 0.13
45. BAG family molecular chaperone regulator 3 P55K, O95817  -0.094 ± 0.12
46. BAG family molecular chaperone regulator 3 P52C, O95817  -0.092 ± 0.3
47. BAG family molecular chaperone regulator 3 R19A, O95817  -0.071 ± 0.11
48. BAG family molecular chaperone regulator 3 Q11D, O95817  -0.046 ± 0.4
49. BAG family molecular chaperone regulator 3 P52K, O95817  -0.039 ± 0.22
50. BAG family molecular chaperone regulator 3 P55Y, O95817  -0.018 ± 0.29
51. BAG family molecular chaperone regulator 3 P55F, O95817  -0.012 ± 0.13
52. BAG family molecular chaperone regulator 3 P55A, O95817  0.013 ± 0.078
53. BAG family molecular chaperone regulator 3 P37G, O95817  0.024 ± 0.084
54. BAG family molecular chaperone regulator 3 Q33A, O95817  0.032 ± 0.15
55. BAG family molecular chaperone regulator 3 Q33K, O95817  0.035 ± 0.21
56. BAG family molecular chaperone regulator 3 R19K, O95817  0.042 ± 0.11
57. BAG family molecular chaperone regulator 3 P55Q, O95817  0.081 ± 0.19
58. BAG family molecular chaperone regulator 3 Q33E, O95817  0.11 ± 0.064
59. BAG family molecular chaperone regulator 3 P37W, O95817  0.115 ± 0.086
60. BAG family molecular chaperone regulator 3 P37L, O95817  0.128 ± 0.067
61. BAG family molecular chaperone regulator 3 Q33G, O95817  0.128 ± 0.059
62. BAG family molecular chaperone regulator 3 P55C, O95817  0.133 ± 0.29
63. BAG family molecular chaperone regulator 3 P55I, O95817  0.135 ± 0.16
64. BAG family molecular chaperone regulator 3 P37C, O95817  0.143 ± 0.2
65. BAG family molecular chaperone regulator 3 P55S, O95817  0.153 ± 0.17
66. BAG family molecular chaperone regulator 3 Q11T, O95817  0.18 ± 0.49
67. BAG family molecular chaperone regulator 3 R19E, O95817  0.208 ± 0.15
68. BAG family molecular chaperone regulator 3 P37Q, O95817  0.24 ± 0.16
69. BAG family molecular chaperone regulator 3 P59V, O95817  0.263 ± 0.34
70. BAG family molecular chaperone regulator 3 P37V, O95817  0.358 ± 0.079
71. BAG family molecular chaperone regulator 3 R19I, O95817  0.367 ± 0.17
72. BAG family molecular chaperone regulator 3 P37D, O95817  0.447 ± 0.16
73. BAG family molecular chaperone regulator 3 P37N, O95817  0.448 ± 0.2
74. BAG family molecular chaperone regulator 3 Q11R, O95817  0.463 ± 0.11
75. BAG family molecular chaperone regulator 3 P37M, O95817  0.465 ± 0.12
76. BAG family molecular chaperone regulator 3 P37I, O95817  0.485 ± 0.08
77. BAG family molecular chaperone regulator 3 Q11A, O95817  0.495 ± 0.34
78. BAG family molecular chaperone regulator 3 P37H, O95817  0.517 ± 0.18
79. BAG family molecular chaperone regulator 3 P37F, O95817  0.528 ± 0.17
80. BAG family molecular chaperone regulator 3 P37Y, O95817  0.573 ± 0.18
81. BAG family molecular chaperone regulator 3 Q11V, O95817  0.619 ± 0.1
82. BAG family molecular chaperone regulator 3 Q11S, O95817  0.63 ± 0.11
83. BAG family molecular chaperone regulator 3 P37S, O95817  0.7 ± 0.072
84. BAG family molecular chaperone regulator 3 Q11G, O95817  0.771 ± 0.065
85. BAG family molecular chaperone regulator 3 Q11Y, O95817  0.795 ± 0.15
86. BAG family molecular chaperone regulator 3 P37R, O95817  0.857 ± 0.077
87. BAG family molecular chaperone regulator 3 P37E, O95817  0.86 ± 0.092
88. BAG family molecular chaperone regulator 3 P37T, O95817  0.898 ± 0.11
89. BAG family molecular chaperone regulator 3 P37K, O95817  0.937 ± 0.12
90. BAG family molecular chaperone regulator 3 Q11K, O95817  1.01 ± 0.19
91. BAG family molecular chaperone regulator 3 Q11M, O95817  1.03 ± 0.39
